{
  "source": "patent US20240262917A1",
  "about": "“ANTIBODIES AGAINST ALK AND METHODS OF USE THEREOF” (Dana-Farber Cancer Institute, Inc., priority 2021, published 2024)",
  "molecules": {"B1": {"name": "8G7: murine monoclonal IgG1 anti-ALK antibody to the N-terminal ECD of human ALK; VH SEQ ID NO: 3, VL SEQ ID NO: 4 (antibody, V domains shown)", "VH": "QVQLQQSGAELVRPGASVTLSCKASGYTFTDYEMHWVKQTPVHGLEWIGAIDPETGGSAYNQKFKAKAILTADRSSSTAYMELRSLTSEDSAVYYCTRTRYYGSSPAMDYWGQGTSVTVSS", "VL": "DIQMTQTTSSLSASLGDRVTISCSASQGIGNYLNWYQQKPDGTVKLLIYYTSSLHSGVPSRFSGSGSGTDYSLTISNLEPEDIATYYCQQYSKLPYTFGGGTKLEIK"}},
  "key": {"[1]": {"test_system": "ALK", "assay": "Western blot analysis of ALK in cell lysates and conditioned media", "format": "binding, human", "from_the_text": "(A) Western blot analysis of ALK in Kelly and SHEP neuroblastoma cells overexpressing GFP and mutated ALK using the mAb-7 and 8G7 anti-ALK antibodies. The mAb-7 antibody was developed at the Vigny laboratory (INSERM, Unité 706/Université Pierre et Marie Curie, Paris F-75005, France) (Moog-Lutz et al, 2005; PMID: 15886198) and obtained through a Materials Transfer Agreement. (B) Western blot analysis of ALK expression in various non-neuroblastoma cell lines: H1373 (human […]), HeLa (cervical cancer), NIH-3T3 (transformed mouse fibroblast cells) using 8G7 and C26G7 (rabbit monoclonal C-terminal anti-ALK antibody; Cell Signaling Technology; Cat #3333; RRID:AB_836862) anti-ALK antibodies.\nThe three HPLC-purified monoclonal antibodies (5H3, 7F7 and 8G7) all of the IgG1 subtype, were tested for their ability to bind to ALK in neuroblastoma cells expressing ALK. Both cell lysates and supernatants from cells grown with and without serum (to increase the expression of ALK) were tested by western blotting. […] (A) Western blot analysis of the indicated hybridoma clones in neuroblastoma cell lines expressing WT (NGP) and mutated (SHSY5Y, Kelly) ALK. NIH3T3 cells were used as controls. (B) Western blot analysis of conditioned media from NGP neuroblastoma and 293T cells engineered to express the WT ALK receptor, with the three ALK mAbs showing binding with the shed ALK extracellular domain. […]\nCell lysates were prepared in NP-40 buffer (Invitrogen) containing complete protease inhibitor (Roche), phosphatase inhibitor (Roche) and phenylmethylsulfonyl fluoride (PMSF). Lysates were incubated on ice for 20 min and centrifuged at 16,000 g for 15 min at 4° C. Protein concentrations of the supernatants were determined with the DC protein assay kit (Bio-Rad). Protein samples were denatured using NuPAGE LDS sample buffer (Invitrogen) and NuPAGE sample reducing agent (Invitrogen). Proteins were then separated on precast 4-12% Bis-Tris gels (Invitrogen) and transferred to nitrocellulose membranes (Bio-Rad). […]"}, "[2]": {"test_system": "ALK receptor", "sequence (Q9UM73 19-1038 limits assumed)": "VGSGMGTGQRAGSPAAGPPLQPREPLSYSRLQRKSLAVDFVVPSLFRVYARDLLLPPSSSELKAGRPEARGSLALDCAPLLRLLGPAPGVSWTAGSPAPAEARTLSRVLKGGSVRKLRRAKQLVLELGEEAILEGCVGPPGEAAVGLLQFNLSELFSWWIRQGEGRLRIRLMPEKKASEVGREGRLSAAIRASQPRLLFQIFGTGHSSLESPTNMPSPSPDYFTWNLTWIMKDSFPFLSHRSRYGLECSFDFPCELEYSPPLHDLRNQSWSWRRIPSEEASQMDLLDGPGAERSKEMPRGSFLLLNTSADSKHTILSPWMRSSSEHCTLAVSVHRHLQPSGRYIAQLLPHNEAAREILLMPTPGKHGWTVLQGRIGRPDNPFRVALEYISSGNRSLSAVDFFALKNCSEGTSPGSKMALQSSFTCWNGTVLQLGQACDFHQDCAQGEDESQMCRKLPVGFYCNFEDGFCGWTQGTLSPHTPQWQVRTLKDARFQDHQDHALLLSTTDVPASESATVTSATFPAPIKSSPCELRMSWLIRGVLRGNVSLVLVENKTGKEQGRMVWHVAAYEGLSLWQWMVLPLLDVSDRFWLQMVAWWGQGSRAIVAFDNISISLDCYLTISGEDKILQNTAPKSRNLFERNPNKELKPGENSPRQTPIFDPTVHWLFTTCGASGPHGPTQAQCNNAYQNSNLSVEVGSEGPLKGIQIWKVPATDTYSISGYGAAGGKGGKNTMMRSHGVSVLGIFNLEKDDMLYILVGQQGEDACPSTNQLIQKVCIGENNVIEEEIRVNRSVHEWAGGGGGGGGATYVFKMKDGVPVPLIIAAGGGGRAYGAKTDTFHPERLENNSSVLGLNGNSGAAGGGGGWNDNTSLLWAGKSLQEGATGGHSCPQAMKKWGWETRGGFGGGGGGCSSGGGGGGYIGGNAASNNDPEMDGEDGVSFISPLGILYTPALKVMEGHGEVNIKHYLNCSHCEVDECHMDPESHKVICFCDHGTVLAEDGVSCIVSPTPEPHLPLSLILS", "assay": "Immunocytochemistry and immunohistochemistry staining of ALK", "format": "binding", "details": "293T and NB9464 cells expressing WT ALK; tumor tissue from ALK F1174L/MYCN transgenic mouse model", "from_the_text": "(A). Immunocytochemistry staining with the 8G7 antibody of 293T and NB9464 (mouse neuroblastoma cells derived from Th-MycN transgenic tumor model; Weiss et al, 1997) cells expressing a control vector or WT ALK. 5×10^6 cells were fixed in 10% formalin and images captured using a Zeiss AXIO Imager Z1 fluorescence microscope following staining. (B) Immunohistochemistry of tumor tissue from the ALK F1174L/MYCN transgenic mouse model using the 8G7 antibody."}, "[3]": {"biological_target": "ALK (Homo sapiens, UniProt Q9UM73)", "sequence (Q9UM73 19-682)": "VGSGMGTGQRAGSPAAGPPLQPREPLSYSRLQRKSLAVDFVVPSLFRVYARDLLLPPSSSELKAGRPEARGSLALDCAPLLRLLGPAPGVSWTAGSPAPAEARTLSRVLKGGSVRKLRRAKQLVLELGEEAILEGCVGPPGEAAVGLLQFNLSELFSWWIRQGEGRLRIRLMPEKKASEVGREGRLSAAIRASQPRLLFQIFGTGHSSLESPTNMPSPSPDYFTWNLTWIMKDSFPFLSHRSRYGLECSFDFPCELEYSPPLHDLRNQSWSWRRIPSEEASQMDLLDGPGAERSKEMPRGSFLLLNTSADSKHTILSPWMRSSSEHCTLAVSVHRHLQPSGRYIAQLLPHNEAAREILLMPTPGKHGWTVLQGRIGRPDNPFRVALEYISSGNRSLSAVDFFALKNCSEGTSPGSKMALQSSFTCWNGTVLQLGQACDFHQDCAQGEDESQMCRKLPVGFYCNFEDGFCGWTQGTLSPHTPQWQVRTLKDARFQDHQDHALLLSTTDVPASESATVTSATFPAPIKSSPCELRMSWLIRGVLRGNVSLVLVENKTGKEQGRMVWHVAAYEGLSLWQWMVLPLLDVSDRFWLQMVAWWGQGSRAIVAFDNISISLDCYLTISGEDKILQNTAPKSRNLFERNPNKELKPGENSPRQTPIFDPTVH", "assay": "Screening and subcloning of hybridomas (ELISA, FCM, functional assays)", "format": "binding", "set-up": "The human ALK extracellular domain (19-682 aa) fused to the mouse Fc gene; made in house; host or cells: 293T cells", "details": "after subcloning by limiting dilution", "experimental": "HAT-selected fused cells were distributed in 96 well plates and the hybridoma supernatants were subjected to several rounds of screening. Initial screening was performed using ELISA against human Fc to test antigen binding with the ALK ECD-human Fc fusion protein. […] These were rescreened by FACS against Ba/F3 and neuroblastoma (NB) cells expressing ALK. From this screen, 22 positive hybridoma supernatants were tested in an antigen-binding capture ELISA assay and 11 were subsequently selected for further analysis. (A) Binding of hybridoma supernatants using an antigen-binding capture assay. The plate was coated with goat-anti-mouse IgG Fc, incubated with hybridoma supernatants, followed by ALK-HRP and visualized using an HRP substrate. (B) Binding of selected hybridoma supernatants to a human Fc antibody using ELISA screening. Plates were coated with the ALK ECD-human Fc fusion protein (ALK-hFc) together with an irrelevant hFc protein and visualized using an anti-mouse kappa light chain antibody. Only the supernatants with the highest binding are shown.\nSupernatants from individual clones were then screened by ELISA and FACS analysis for ALK binding. Shown here is the viability of NGP neuroblastoma cells (expressing ALK) in the presence of anti-mouse IgG antibody in hybridoma clone supernatants. […]"}},
  "note": "Entries after “also recorded” stand apart in the source; their conditions may differ.",
  "data": [
    {"molecule": "B1", "values": [
      {"measurement": "recognition of ALK in immunoblotting assays", "setting": "[1]", "result": "recognize ALK in immunoblotting assays"},
      {"measurement": "specificity of ALK binding by western blot", "setting": "[1]; FIG. 15 and FIG. 25, compared with mAb-7 and C26G7 anti-ALK antibodies", "result": "better specificity compared to commercial Abs; also recorded: binds specifically to the N-terminal region of the ALK protein"},
      {"measurement": "binding in immunocytochemistry and immunohistochemistry", "setting": "[2]", "result": "showed binding in engineered cells and transgenic mice tumors"},
      {"measurement": "ALK specificity of the clone's monoclonal antibody", "setting": "[3]", "result": "high ALK specificity"}
    ]}
  ]
}
